Data on one substance can be found in paper PMC10572825.

This assay addresses CXCL12 (Homo sapiens) (UniProt P48061). Briefly: isothermal fluorescence titration. The conditions noted are these: FITC-labelled tenascin-C.

Chain of CXCL12 (Homo sapiens) (P48061 22-89): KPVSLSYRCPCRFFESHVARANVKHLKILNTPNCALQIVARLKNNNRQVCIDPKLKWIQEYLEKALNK

For Tenascin-C, Q80YX1, the Kd (usually the equilibrium constant for the complex coming apart) was 1.01 µM.
